# Measurements reported in the supplement of paper PMC7877785.
# ± gives the uncertainty stated by the source.
# Assay: self-splicing fitness, log relative to wild type (ln ratio); higher = more splicing; Tetrahymena group I intron in knt gene, E. coli kanamycin selection, DiMSum; sequences stand for … in CUCUCU…GGAGGGAAAAGUUAUCAGGCAUGCACCUGGUAGCUAGUCUUUAAACCAAUAGAUUGCAUCGGUUUAAAAGGCAAGACCGUCAAAUUGCGGGAAAGGGGUCAACAGCCGUUCAGUACCAAGUCUCAGGGGAAACUUUGAGAUGGCCUUGCAAAGGGUAUGGUAAUAAGCUGACGGACAUGGUCCUAACCACGCAGCCAAGUCCUAAGUCAACAGAUCUUCUGUUGAUAUGGAUGCAGUUCACAGACUAAAUGUCGGUCGGGGAAGAUGUAUUCUUCUCAUAAGAUAUAGUCGGACCUCUCCUUAAUGGGAGCUAGCGGAUGAAGUGAUGCAACACUGGAGCCGCUGGGAACUAAUUUGUAUGCGAAAGUAUAUUGAUUAGUUUUGGAGUACUCGUGGUCG
# Outline: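 Library with all eight P1ex-region intron nucleotides randomised, intron inside the knt kanamycin-resistance gene on pET-22b(+), in E. coli BL21(DE3). Cells grew overnight at 37°C or 30°C on LB agar with or without 25 μg/mL kanamycin (plus 100 μg/mL carbenicillin, 50 μM IPTG, 0.2% rhamnose), in six replicate transformations. Pooled colonies were amplicon-sequenced on Illumina HiSeq 2500. DiMSum fitness is the error-weighted combination of wild-type-normalised replicate fold changes, kanamycin versus none.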
Sequence,self-splicing fitness (ln) (30 °C),self-splicing fitness (ln) (37 °C)
GGCCAGCAAUAUUACGCAGU,-1.37 ± 0.12,-1.86 ± 0.19
GGCCAGCAAUAUUACGCCAG,-3.88 ± 0.37,-1.59 ± 0.35
GGCCAGCAAUAUUACGCCAU,-3.57 ± 0.33,-2.12 ± 0.28
GGCCAGCAAUAUUACGCGCA,-0.425 ± 0.1,0.666 ± 0.13
GGCCAGCAAUAUUACGCGCC,-3.11 ± 0.24,-2.05 ± 0.44
GGCCAGCAAUAUUACGCUGA,-0.636 ± 0.063,-0.331 ± 0.074
GGCCAGCAAUAUUACGGAAG,-1.79 ± 0.082,-0.69 ± 0.11
GGCCAGCAAUAUUACGUAUA,-3.92 ± 0.26,-2.23 ± 0.2
GGCCAGCAAUAUUACGUCAC,-2.59 ± 0.34,
GGCCAGCAAUAUUACGUGAC,-2.05 ± 0.09,-1.16 ± 0.11
GGCCAGCAAUAUUACGUGAU,-1.31 ± 0.075,-0.482 ± 0.097
GGCCAGCAAUAUUACGUGUU,-0.771 ± 0.055,-0.0103 ± 0.07
GGCGAGCAAUAUUACGAACA,-1.16 ± 0.16,-0.12 ± 0.14
GGCGAGCAAUAUUACGAAUG,-3.21 ± 0.18,-2.84 ± 0.2
GGCGAGCAAUAUUACGACUU,0.166 ± 0.15,0.444 ± 0.14
GGCGAGCAAUAUUACGAGUA,-1.9 ± 0.35,-1.99 ± 0.22
GGCGAGCAAUAUUACGCAUG,-1.32 ± 0.22,-0.82 ± 0.23

Sequence,self-splicing fitness (ln) (30 °C),self-splicing fitness (ln) (37 °C)
GGCGAGCAAUAUUACGCGGA,-2.3 ± 0.17,-0.458 ± 0.13
GGCGAGCAAUAUUACGCUAC,-1.38 ± 0.22,1.89 ± 0.48
GGCGAGCAAUAUUACGCUAG,-3.88 ± 0.28,-2.82 ± 0.23
GGCGAGCAAUAUUACGGAAC,-1.91 ± 0.19,-1.68 ± 0.26
GGCGAGCAAUAUUACGUACG,-2.43 ± 0.18,-1.35 ± 0.22
GGCGAGCAAUAUUACGUAUA,-1.86 ± 0.14,-1.07 ± 0.13
GGCGAGCAAUAUUACGUCAG,-2.33 ± 0.31,-3.08 ± 0.4
GGCGAGCAAUAUUACGUCUC,-1.87 ± 0.23,-1.67 ± 0.38
GGCGAGCAAUAUUACGUGUC,-4.05 ± 0.21,-1.46 ± 0.16
GGCUAGCAAUAUUACGAAUU,-0.487 ± 0.19,-0.299 ± 0.15
GGCUAGCAAUAUUACGAGGC,-2.31 ± 0.24,
GGCUAGCAAUAUUACGAGUA,-1.59 ± 0.13,-0.404 ± 0.13
GGCUAGCAAUAUUACGAUGA,-0.793 ± 0.15,-0.54 ± 0.16
GGCUAGCAAUAUUACGAUGU,-1.45 ± 0.084,-0.785 ± 0.083
GGCUAGCAAUAUUACGAUUG,-1.67 ± 0.12,-1.47 ± 0.13
GGCUAGCAAUAUUACGCAAG,-4 ± 0.46,-0.63 ± 0.22
GGCUAGCAAUAUUACGGGAG,-2.17 ± 0.14,-1.84 ± 0.19
